Measured values published in EP2270053A1 (U3 Pharma GmbH, dated 2011).

T1: human receptor tyrosine kinase AXL (human, UniProt P30530 26-894)
T1 construct: also called hAXL; human AXL on NIH3T3-AXL cl.7, Ratl-AXL cl.2, Hs578T, NCI-H292 and CaSki cells
T1 sequence: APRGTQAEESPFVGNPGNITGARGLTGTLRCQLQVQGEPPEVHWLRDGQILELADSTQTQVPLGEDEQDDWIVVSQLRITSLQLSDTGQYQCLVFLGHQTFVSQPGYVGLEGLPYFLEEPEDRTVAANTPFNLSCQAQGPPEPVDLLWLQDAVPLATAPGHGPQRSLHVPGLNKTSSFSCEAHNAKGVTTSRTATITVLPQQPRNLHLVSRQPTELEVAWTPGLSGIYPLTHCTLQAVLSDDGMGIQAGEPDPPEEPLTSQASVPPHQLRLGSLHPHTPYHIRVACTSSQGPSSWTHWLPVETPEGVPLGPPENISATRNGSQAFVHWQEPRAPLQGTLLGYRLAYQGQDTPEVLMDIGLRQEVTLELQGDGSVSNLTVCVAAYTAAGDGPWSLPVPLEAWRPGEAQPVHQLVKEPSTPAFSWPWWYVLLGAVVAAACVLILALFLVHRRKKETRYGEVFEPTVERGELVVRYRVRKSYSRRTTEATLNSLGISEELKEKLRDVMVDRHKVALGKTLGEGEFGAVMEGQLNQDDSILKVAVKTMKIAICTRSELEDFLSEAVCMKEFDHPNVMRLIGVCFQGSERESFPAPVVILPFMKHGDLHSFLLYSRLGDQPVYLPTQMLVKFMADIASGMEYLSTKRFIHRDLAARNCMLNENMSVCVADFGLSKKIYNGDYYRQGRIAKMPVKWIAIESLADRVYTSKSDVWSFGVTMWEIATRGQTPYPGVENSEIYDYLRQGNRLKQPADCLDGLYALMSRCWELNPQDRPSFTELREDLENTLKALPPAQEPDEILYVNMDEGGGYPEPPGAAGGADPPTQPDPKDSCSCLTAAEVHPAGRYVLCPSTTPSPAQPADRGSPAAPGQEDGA

B1: rat anti-human AXL monoclonal antibody #11B7 (antibody, rat IgG1, V domains shown)
VH: EVQLQESGPGLVKPSQSLSLTCSVTGYSITSNYWGWIRKFPGDKMEWMGYITYSGSTSYNPSLKSRISITRDTSKNQFFLQLNSVTSEDTATYYCAITTFYYWGQGVMVTVSS
VL: DIQMTQAPSSLPASLGDRVTITCRASQDIGNYLRWFQQKPGKSPRLMISGATNLAAGVPSRFSGSRSGSDYSLTISSLESEDMADYYCLQSKESPWTFGGGTKLELKR
notes: also called I11B7; rat anti-Axl antibody 11B7
B2: chimeric anti-AXL antibody ch11B7-IgG1 (antibody, V domains shown)
VH: B1 VH
VL: B1 VL
notes: Rat 11B7 variable domains on human IgG1 / human kappa; also called chm11B7; chimeric anti-AXL mAb #11B7
B3: rat anti-human AXL monoclonal antibody #11D5 (antibody, rat IgG2a, V domains shown)
VH: EVQLQESGPGLVKPSQSLSLTCSVTGYSITSNYWGWIRKFPGNKMEWIGHITNSGNTTYNPSLKSRISISRDTSRNQFFLQLNSVTTEDTATYYCAKGAFDYWGQGVMVTVSS
VL: DIQMTQSPSSMSTSLGDRVTITCRASQDIGNYLSWFQQKVGKSPRRMIYGAIKLAVGVPSRFSGSRSGSDYSLTISSLESEDMAIYYCLQYIQFPLTFGSGTKLELKR
notes: also called III11D5
B4: chimeric anti-AXL antibody ch11D5-IgG1 (antibody, V domains shown)
VH: B3 VH
VL: B3 VL
notes: also called chm11D5; human chimeric antibody (of #11D5)

Target: T1, human receptor tyrosine kinase AXL
Assay: FACS Scatchard, apparent KD (KDapp) on NIH3T3 cells overexpressing human AXL

Kd | Binder
0.38 nM | B1
0.6 nM | B2
0.81 nM | B3
0.4 nM | B4
